# Source: US20260231968A1, “AN ECO-FRIENDLY, SUSTAINABLE FOOD PRESERVATIVE” (priority 2023, published 2026)
# Assays:
# 3T3 cells = test: Cell viability assay based on luminescence (cell-titer kit); details: 2-74 μM, 24 h
# Method: To assess any potential deleterious effects of psoriasin, such as cytotoxicity, a cell viability assay was performed based on luminescence, in which decreased luminescence is indicative of reduced cell viability. Various concentrations of psoriasin ranging from 2-74 μM, were tested on 3T3 cells. Approximately 5000 cells were plated in each well of a 96 well-plate and following overnight incubation, psoriasin was added in the indicated concentration within the medium to the cells (performed in triplicate). Luminescence values were recorded after an additional 24 h using the cell-titer kit (Promega Ltd.) in a BioTek Synergy plate reader.
# E. coli = test: Thermal stability of psoriasin, E. coli standard growth assay; assay type: cell-based
# Method: In another study, psoriasin stock (36 mg/mL in 1×PBS) was exposed to temperatures of 70° C., 80° C., and 90° C. for periods of 15, 30, and 60 minutes. After thermal exposure, the activity of the protein was assessed against E. coli in a standard growth assay with 0.4%, 0.2% or 0.1% psoriasin.
# Candida albicans = test: Dose-response growth assay in 96 well plates, C. albicans in RPMI-MOPS (also zinc and pH variation); assay type: cell-based
# Method: C. albicans were seeded on 10 cm plates of YAG-agarose for 1-2 days in a humidified incubator at 30° C. C. albicans colonies were used for 48 hours after their appearance before disposal.
# RPMI-MOPS (RPMI Powder, 165 mM MOPS, and Pen/Strep solution (x100)) was inoculated with either 50,000 spores/ml of A. flavus, or 1 colony/10 ml of C. albicans. The inoculated RPMI-MOPS was poured into a Nunclone™ coated 96-well plate (100 μl per well), with the different treatments and controls. The 96-well plate was then incubated in a shaker/incubator plate-reader at 30° C. where the absorbance (600 nm) was monitored and measured every 10 minutes.
# In Example 4, several ZnCl2 concentrations were added to 1 μM of His-psoriasin.
# In Example 5, RPMI-MOPS was titrated to the different pH levels using 1M NaOH solution (RMPI-MOPS, initial pH ~4).
# In order to evaluate the ability of recombinant His-psoriasin to inhibit the growth of Candida albicans, a single colony/10 ml was incubated in a RPMI-MOPS medium with variable concentrations of psoriasin added to each well. Fungi growth was monitored using an absorbance plate reader every 10 minutes at 600 nm. No apparent growth was measured in psoriasin concentrations higher than 300 nM for C. albicans (FIG. 2).
# In order to test the effect of zinc ions on the ability of psoriasin to inhibit fungal growth, Candida albicans was incubated in a RPMI-MOPS medium in the presence of 1 μM psoriasin with variable concentrations of ZnCl2.
# Candida albicans was incubated in a RPMI-MOPS medium in the presence of 10 μM His-psoriasin at variable pHs. […] Accordingly, effective anti-fungal activity of His-psoriasin can be obtained also at pH levels that are lower than pH=8.
# Aspergillus flavus [1] = test: Chickpea paste assay inoculated with A. flavus; assay type: cell-based; details: for fungal load count on YAG-agarose plates: 30° C, after 48 and 72 hours
# Method: Sterilized and frozen chickpeas (100 g) were boiled for 15 minutes and ground using a blender. The ground chickpeas were treated with chloramphenicol (34 μg/μl) and tetracycline (12.5 μg/μl) to prevent microbial growth. The chickpeas were then inoculated with 500 spores/g of A. flavus and divided into groups of 7 g, and each group was treated with 7 ml of PBS×1 with different His-psoriasin concentrations to reach final concentrations of 0 μM, 50 μM, 100 μM, and 200 μM. The different groups were then divided into 1 g of treated and inoculated chickpeas in 6 well plates (1 g/well) and incubated in a humidified incubator at 30° C. Every day, 1 g of treated chickpeas from each group was diluted in PBS×1 and seeded on YAG-agarose plates to count colonies and calculate the fungi development through time.
# For the visual evaluation of the treated/non-treated and inoculated/not-inoculated samples, the samples were prepared in the same way, but incubated at room temperatures and divided into groups of 3 g each.
# Chickpeas were boiled and ground and then treated with a combination of chloramphenicol and tetracycline antibiotics (to eliminate bacterial growth) at final concentrations of 34 μg/μl and 12.5 μg/μl, respectively. Samples were divided into ‘inoculated with Aspergillus flavus’ and ‘non-inoculated’, and ‘treated’ and ‘non-treated’ with 180 μM His-psoriasin. All samples were placed in 20° C.
# In a follow-up experiment, inoculated chickpea paste samples were treated with three different recombinant His-psoriasin concentrations, namely 50 μM, 100 μM, and 200 μM, and incubated at 30° C. Fungal load count was performed on YAG-agarose plates with antibiotics (chloramphenicol (34 μg/μl) and tetracycline (12.5 μg/μl)) to prevent bacterial growth after 48 and 72 hours.
# [2] = Thermal stability of psoriasin, microbial growth inhibition test (CLSI M27/M38); assay type: cell-based; details: stock 36 mg/mL in 1×PBS, 4° C to 84° C for one hour
# Method: In order to assess its thermal stability, psoriasin stock (36 mg/mL in 1×PBS) was subjected to various temperatures ranging from 4° C. to 84° C. for one hour. The thermally treated psoriasin was subsequently used in a microbial growth inhibition test based on standardized protocols M27 (yeasts) and M38 (filamentous fungi) of the Clinical and Laboratory Standards Institute.
# Aspergillus flavus [3] = test: Microbial Growth Inhibition Test, broth microdilution optical method; assay type: cell-based
# Method: The IC90 of psoriasin for several microorganisms was determined by Microbial Growth Inhibition Tests. The tests were performed using the Broth Microdilution Optical Method based on standardized protocols M27 (yeasts) and M38 (filamentous fungi) of the Clinical and Laboratory Standards Institute. […] MOPS, LB (Luria-Bertani), and TSB ([…]) medium types were used, depending on the species being tested. The absorbance was calibrated to each species, and was measured between 450 nm to 650 nm.
# In addition, ethyl lauroyl arginate (LAE), a commercially available food preservative, was tested in similar growth conditions as a reference.
molecule,measurement,setting,value
"psoriasin: Recombinant human psoriasin (S100a7) containing a histidine tag, amino acid sequence SEQ ID NO: 11, expression vector pET-28a (protein, listed as Homo sapiens) MSNTQAERSIIGMIDMFHKYTRRDDKIEKPSLLTMMKENFPNFLSACDKKGTNYLADVFEKKDKNEDKKIDFSEFLSLLGDIATDYHKQSHGAAPCSGGSQ",cell viability (luminescence),3T3 cells,No change in luminescence was detected
same,antimicrobial activity against E. coli after thermal exposure,"E. coli; 70° C for 15, 30 and 60 minutes, all concentrations",retained full antimicrobial activity
same,ability to inhibit E. coli after thermal exposure,"E. coli; 70° C, 80° C, 90° C for 15 minutes, 0.4%, 0.2% or 0.1% psoriasin",maintained its ability to inhibit the growth of E. coli
same,antimicrobial activity against E. coli after thermal exposure,E. coli; 80° C and 90° C for 1 hour,"inhibited the growth of E. coli, though to a lesser extent"
same,C. albicans proliferation at variable pHs,"Candida albicans; 10 μM His-psoriasin, RPMI-MOPS",prevent C. albicans proliferation at all the tested pH levels
same,psoriasin concentration above which no apparent growth was measured,"Candida albicans; C. albicans single colony/10 ml, RPMI-MOPS, absorbance 600 nm",higher than 300 nM
same,ZnCl2 concentration above which the fungi retained their full ability to grow,Candida albicans; in the presence of 1 μM psoriasin,above 1.2 μM
same,signs of fungal growth in chickpea paste (visual),"Aspergillus flavus [1]; 180 μM, 20° C, after 10 days",did not show any signs of fungal growth
same,fungal load count on YAG-agarose plates,Aspergillus flavus [1]; 200 μM,No fungi had developed
same,fungal load count on YAG-agarose plates,"Aspergillus flavus [1]; lower concentrations (50 μM, 100 μM)",reduced growth was observed
same,inhibitory properties after thermal treatment,[2],maintained its inhibitory properties
same,IC90,"Aspergillus flavus [3]; Aspergillus flavus, RPMI-MOPS",600 nM
same,inhibition of A. flavus growth,Aspergillus flavus [3]; concentrations of 0.325 μM and above,nearly all growth
same,inhibition of detectable A. flavus growth,Aspergillus flavus [3]; concentrations of 0.6 μM and above,100%
